In patent US20240238439A1, “HER3-BINDING ANTIBODY-DRUG CONJUGATE” (priority 2023, published 2024):

Columns and labels:
FCɣR IIA (CD32a) (human) = FCɣR IIA (CD32a) (human) (UniProt P12318); assay: SPR
FCɣR IA (CD64) (human) = FCɣR IA (CD64) (human) (UniProt P12314); assay: SPR
[1] = biological target: HER3 on the surface of human cancer cell lines (HCT116, DU145, H358, T-47D, OVCAR8) (UniProt P21860); assay: flow cytometry; OVCAR8 cells
[2] = biological target: HER3 on the surface of human cancer cell lines (HCT116, DU145, H358, T-47D, OVCAR8) (UniProt P21860); assay: flow cytometry; DU145 cells
[3] = biological target: HER3 on the surface of human cancer cell lines (HCT116, DU145, H358, T-47D, OVCAR8) (UniProt P21860); assay: flow cytometry; H358 cells
[4] = biological target: HER3 on the surface of human cancer cell lines (HCT116, DU145, H358, T-47D, OVCAR8) (UniProt P21860); assay: flow cytometry; HCT116 cells

FCɣR IIA (CD32a) (human), sequence (P12318 34-217): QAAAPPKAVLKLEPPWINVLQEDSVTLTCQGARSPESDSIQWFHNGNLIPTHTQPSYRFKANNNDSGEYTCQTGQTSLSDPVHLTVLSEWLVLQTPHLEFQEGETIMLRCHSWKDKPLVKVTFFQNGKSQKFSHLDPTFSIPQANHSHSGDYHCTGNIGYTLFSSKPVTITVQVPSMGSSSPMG
FCɣR IA (CD64) (human), sequence (P12314 16-288): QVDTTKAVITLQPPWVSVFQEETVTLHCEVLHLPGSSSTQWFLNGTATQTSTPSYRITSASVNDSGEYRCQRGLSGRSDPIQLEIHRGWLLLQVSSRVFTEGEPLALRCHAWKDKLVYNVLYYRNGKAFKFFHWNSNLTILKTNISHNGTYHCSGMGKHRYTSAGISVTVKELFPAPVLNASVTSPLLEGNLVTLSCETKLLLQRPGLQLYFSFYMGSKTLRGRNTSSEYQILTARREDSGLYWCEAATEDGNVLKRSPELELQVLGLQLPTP

Substance | Kd (FCɣR IIA (CD32a) (human)) [nM] | Kd (FCɣR IA (CD64) (human)) [nM] | EC50 [1] [nM] | EC50 [2] [nM] | EC50 [3] [nM] | EC50 [4] [nM]
Human IgG1 (+ve control) | 56.9 | 6.5 |  |  |  | 
Patritumab-DXd |  |  | 1.01 | 2.4 | 8.23 | 0.756
